According to US20120178113A1:

T1: full-length human recombinant IGFBP-4 (insulin-like growth factor binding protein-4) expressed in NS0 cell line, P22692
T1 chain: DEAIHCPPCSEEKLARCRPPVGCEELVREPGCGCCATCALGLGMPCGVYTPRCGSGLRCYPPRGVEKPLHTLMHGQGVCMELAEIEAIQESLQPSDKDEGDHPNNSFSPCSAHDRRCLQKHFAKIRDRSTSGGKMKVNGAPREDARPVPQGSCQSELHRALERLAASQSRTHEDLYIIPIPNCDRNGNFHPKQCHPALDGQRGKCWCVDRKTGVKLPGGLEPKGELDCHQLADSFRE


Molecular target: T1, full-length human recombinant IGFBP-4 …

Protein | PAPP-A-dependent cleavage of IGFBP-4, determined by Western blotting
atherosclerotic PAPP-A (pregnancy-associated plasma protein-A purified from human atherosclerotic coronary arteries) (protein) EARGATEEPSPPSRALYFSGRGEQLRLRADLELPRDAFTLQVWLRAEGGQRSPAVITGLYDKCSYISRDRGWVVGIHTISDQDNKDPRYFFSLKTDRARQVTTINAHRSYLPGQWVYLAATYDGQFMKLYVNGAQVATSGEQVGGIFSPLTQKCKVLMLGGSALNHNYRGYIEHFSLWKVARTQREILSDMETHGAHTALPQLLLQENWDNVKHAWSPMKDGSSPKVEFSNAHGFLLDTSLEPPLCGQTLCDNTEVIASYNQLSSFRQPKVVRYRVVNLYEDDHKNPTVTREQVDFQHHQLAEAFKQYNISWELDVLEVSNSSLRRRLILANCDISKIGDENCDPECNHTLTGHDGGDCRHLRHPAFVKKQHNGVCDMDCNYERFNFDGGECCDPEITNVTQTCFDPDSPHRAYLDVNELKNILKLDGSTHLNIFFAKSSEEELAGVATWPWDKEALMHLGGIVLNPSFYGMPGHTHTMIHEIGHSLGLYHVFRGISEIQSCSDPCMETEPSFETGDLCNDTNPAPKHKSCGDPGPGNDTCGFHSFFNTPYNNFMSYADDDCTDSFTPNQVARMHCYLDLVYQGWQPSRKPAPVALAPQVLGHTTDSVTLEWFPPIDGHFFERELGSACHLCLEGRILVQYASNASSPMPCSPSGHWSPREAEGHPDVEQPCKSSVRTWSPNSAVNPHTVPPACPEPQGCYLELEFLYPLVPESLTIWVTFVSTDWDSSGAVNDIKLLAVSGKNISLGPQNVFCDVPLTIRLWDVGEEVYGIQIYTLDEHLEIDAAMLTSTADTPLCLQCKPLKYKVVRDPPLQMDVASILHLNRKFVDMDLNLGSVYQYWVITISGTEESEPSPAVTYIHGSGYCGDGIIQKDQGEQCDDMNKINGDGCSLFCRQEVSFNCIDEPSRCYFHDGDGVCEEFEQKTSIKDCGVYTPQGFLDQWASNASVSHQDQQCPGWVIIGQPAASQVCRTKVIDLSEGISQHAWYPCTISYPYSQLAQTTFWLRAYFSQPMVAAAVIVHLVTDGTYYGDQKQETISVQLLDTKDQSHDLGLHVLSCRNNPLIIPVVHDLSQPFYHSQAVRVSFSSPLVAISGVALRSFDNFDPVTLSSCQRGETYSPAEQSCVHFACEKTDCPELAVENASLNCSSSDRYHGAQCTVSCRTGYVLQIRRDDELIKSQTGPSVTVTCTEGKWNKQVACEPVDCSIPDHHQVYAASFSCPEGTTFGSQCSFQCRHPAQLKGNNSLLTCMEDGLWSFPEALCELMCLAPPPVPNADLQTARCRENKHKVGSFCKYKCKPGYHVPGSSRKSKKRAFKTQCTQDGSWQEGACVPVTCDPPPPKFHGLYQCTNGFQFNSECRIKCEDSDASQGLGSNVIHCRKDGTWNGSFHVCQEMQGQCSVPNELNSNLKLQCPDGYAIGSECATSCLDHNSESIILPMNVTVRDIPHWLNPTRVERVVCTAGLKWYPHPALIHCVKGCEPFMGDNYCDAINNRAFCNYDGGDCCTSTVKTKKVTPFPMSCDLQGDCACRDPQAQEHSRKDLRGYSHG | Atherosclerotic PAPP-A was shown to cleave IGFBP-4 with the same efficiency as recombinant PAPP-A
human recombinant PAPP-A (HyTest) (protein) EARGATEEPSPPSRALYFSGRGEQLRLRADLELPRDAFTLQVWLRAEGGQRSPAVITGLYDKCSYISRDRGWVVGIHTISDQDNKDPRYFFSLKTDRARQVTTINAHRSYLPGQWVYLAATYDGQFMKLYVNGAQVATSGEQVGGIFSPLTQKCKVLMLGGSALNHNYRGYIEHFSLWKVARTQREILSDMETHGAHTALPQLLLQENWDNVKHAWSPMKDGSSPKVEFSNAHGFLLDTSLEPPLCGQTLCDNTEVIASYNQLSSFRQPKVVRYRVVNLYEDDHKNPTVTREQVDFQHHQLAEAFKQYNISWELDVLEVSNSSLRRRLILANCDISKIGDENCDPECNHTLTGHDGGDCRHLRHPAFVKKQHNGVCDMDCNYERFNFDGGECCDPEITNVTQTCFDPDSPHRAYLDVNELKNILKLDGSTHLNIFFAKSSEEELAGVATWPWDKEALMHLGGIVLNPSFYGMPGHTHTMIHEIGHSLGLYHVFRGISEIQSCSDPCMETEPSFETGDLCNDTNPAPKHKSCGDPGPGNDTCGFHSFFNTPYNNFMSYADDDCTDSFTPNQVARMHCYLDLVYQGWQPSRKPAPVALAPQVLGHTTDSVTLEWFPPIDGHFFERELGSACHLCLEGRILVQYASNASSPMPCSPSGHWSPREAEGHPDVEQPCKSSVRTWSPNSAVNPHTVPPACPEPQGCYLELEFLYPLVPESLTIWVTFVSTDWDSSGAVNDIKLLAVSGKNISLGPQNVFCDVPLTIRLWDVGEEVYGIQIYTLDEHLEIDAAMLTSTADTPLCLQCKPLKYKVVRDPPLQMDVASILHLNRKFVDMDLNLGSVYQYWVITISGTEESEPSPAVTYIHGSGYCGDGIIQKDQGEQCDDMNKINGDGCSLFCRQEVSFNCIDEPSRCYFHDGDGVCEEFEQKTSIKDCGVYTPQGFLDQWASNASVSHQDQQCPGWVIIGQPAASQVCRTKVIDLSEGISQHAWYPCTISYPYSQLAQTTFWLRAYFSQPMVAAAVIVHLVTDGTYYGDQKQETISVQLLDTKDQSHDLGLHVLSCRNNPLIIPVVHDLSQPFYHSQAVRVSFSSPLVAISGVALRSFDNFDPVTLSSCQRGETYSPAEQSCVHFACEKTDCPELAVENASLNCSSSDRYHGAQCTVSCRTGYVLQIRRDDELIKSQTGPSVTVTCTEGKWNKQVACEPVDCSIPDHHQVYAASFSCPEGTTFGSQCSFQCRHPAQLKGNNSLLTCMEDGLWSFPEALCELMCLAPPPVPNADLQTARCRENKHKVGSFCKYKCKPGYHVPGSSRKSKKRAFKTQCTQDGSWQEGACVPVTCDPPPPKFHGLYQCTNGFQFNSECRIKCEDSDASQGLGSNVIHCRKDGTWNGSFHVCQEMQGQCSVPNELNSNLKLQCPDGYAIGSECATSCLDHNSESIILPMNVTVRDIPHWLNPTRVERVVCTAGLKWYPHPALIHCVKGCEPFMGDNYCDAINNRAFCNYDGGDCCTSTVKTKKVTPFPMSCDLQGDCACRDPQAQEHSRKDLRGYSHG | Atherosclerotic PAPP-A was shown to cleave IGFBP-4 with the same efficiency as recombinant PAPP-A
